Measurements reported in the DeepSol protein solubility set.

experiment: soluble on expression in E. coli; label from the status in PepcDB or PDB records

Row | Sequence | soluble on expression in E. coli
1 | MGNRKKKCGIVTFHSSHNYGSVLQAYAMVRVMQKMGLDAELIDFRHPRTTDMYEWRLWSTYKNWKWNLRELVLRGLFSFGKKREQVFSDFIENVLKKSKRVKDKNDIPDIYDILVCGSDQIWNPKASGENDPIYYLDFGTTTCKFSYAASSGSVRFGDENPELFKKYLQNLKSIGVRERFMQEYIKEELGLVSEINPDPTFLLNASEWSEIEKPYKGLPDNYLLIYTIKRPKETINFAHQVAVSLNLPTVQICNDRDLNALMHKDVDYRLMNVSPQQFLWLFHHASFIVTNTFHGNMFSVIYRKNFVHYGINSSDTRISTLHDEIRLKNKIVSSFEIDQRIIDYNLIEENVAYYCKCGLNFIQANINDD | not soluble
2 | QKKDTSNHFHVFVGDLSPEITTEDIKAAFAPFGRISDARVVKDMATGKSKGYGFVSFFNKWDAENAIQQMGGQWLGGRQIRTNWATRKPPAPKSTYESNTKQ | soluble
3 | MSEAKWLSLLGLAARARQLLTGEEQVVKAVQNGQVTLVILSSDAGIHTKKKLLDKCGSYQIPVKVVGNRQMLGRAIGKHERVVIGVKDAGFSRKLAALIDE | soluble
4 | MSEIKLNYHKTHFLTSAPNIRSIPEDTGIEIAFAGRSNAGKSTALNALTNQKNLARTSKTPGRTQLINLFEVEPNCKLVDLPGYGYAAVPEQMKIQWQKSLGEYLQKRECLAGLVVLMDIRHPLKDLDQQMIEWAVSANLPVLLLLTKADKLSQSARSKQVKMVREAILPFQGDIQVEAFSAQNKIGIDKLAVKLDFWFSPLFAE | not soluble
5 | LSITTPEQRIEKAKGETAYLPCKFTLSPEDQGPLDIEWLISPSDNQIVDQVIILYSGDKIYDNYYPDLKGRVHFTSNDVKSGDASINVTNLQLSDIGTYQCKVKKAPGVANKKFLLTVLVKPSGTRCFVDGSEEIGNDFKLKCEPKEGSLPLQFEWQKLSDSQTMPTPWLAEMTSPVISVKNASSEYSGTYSCTVQNRVGSDQCMLRLDVVPPS | soluble
6 | MNNNNKAKTLITQLEQEINWVEELNTLLSEEKEILSTSQFNQLETLAEKKQELSTKLEASAKQRVDLIKESNPGDKPHGLLLSDFLKNCATEDGIQINHLNNTLAERLNLCRELNTINGQVIANNMYTRQQIVNALSGNKSDAVSVYTSNGNLETPSESSHHEEA | soluble
7 | MSLNSAIKDIEIIEMGEKLRETSSPWSSTILLVKLTSADGLVGYGEAPTTLMTLPVLESMKEVARVFKGKDFFNVEQNVFDFYRNSFYLPVSMEATSALSAFEIASWDLIGKELGTPVYKLIGGEVNHNIRAYANGWYNDCVTPDDFVKKAKEVVKMGFTAMKFDPFGDNYDTITNEGIENARNIVGALRSEFGEKVDLLIEYHGRFSKIAAIKAGMALEEFKPYFYEEPLHPDLDHDLLDLKQYYKVPIALGERVLNKKIFARFISQKLVDIIQPDLTNSGGILEAKKIAAIADGFGIPIAPHNAFGPIQTAATLNVDTTLTNFAIQESFEMFWPDWKKNLMASGYKLENGYFRLTGDAGIGKVNESIVEKYQVSGMEPFDDKEPPWVVSGTFKHYQQKEGHHHHHH | not soluble
8 | MAKRKGKGTRSESNRNLEELRRKAVEIVKRLEKVYLNPRLELEYENAFQLLVMAILAAQESDKVVNKVSKEFFKKYKTPQDIARANLEELEEDLKHINFYRRKAKLIKECCEKLIELYKGEVPKSVGELVKLPGVGRKTANMVIGGAYNLPAIIVDRHVHRVVERISLSKQKNPDKMEMELSEIVPQELWTKFSLLLLNHGKTICKARNPECEKCPILDLCEYGQKNLKGRK | soluble
9 | MKQGTMKILFFVLKTKLLKNGEAPILMRITINGQYEETRIQRSVPLKLWNAAKGCSKGKDRASNELNSYLSELATRALEKYKELILEQAISTPSLILKRVFGKDTEMRTLLGTIRQEIKEMEKVVNIDYAPVTINRYKNVLKKLENSIPTFYDKEDITFHELTPEFIKAFDLHLKTEVGLCRNTIVRYMKCFKKITNMALAKGWMKKDAFYGYKMEQDETDPVFLTYDELQTVMNKEFTIPRLVLVRDIFIFACFTGLAFADVSTLKKEDLVQDNNGDWWIRKGRIKLMHRHKASSICNIPLLPVPLAILKKYENNPVCIKKGCCLPVPCNQKMNSYLKEIADFCGIKKNITTHAGRHTFGTTITLANNVPLQDVSVMLGHASTRMTQHYARVMNASLKKSMLNVKKRLTQ | not soluble
10 | MASVAAARAVPVGSGLRGLQRTLPLVVILGATGTGKSTLALQLGQRLGGEIVSADSMQVYEGLDIITNKVSAQEQRICRHHMISFVDPLVTNYTVVDFRNRATALIEDIFARDKIPIVVGGTNYYIESLLWKVLVNTKPQEMGTEKVIDRKVELEKEDGLVLHKRLSQVDPEMAAKLHPHDKRKVARSLQVFEETGISHSEFLHRQHTEEGGGPLGGPLKFSNPCILWLHADQAVLDERLDKRVDDMLAAGLLEELRDFHRRYNQKNVSENSQDYQHGIFQSIGFKEFHEYLITEGKCTLETSNQLLKKGIEALKQVTKRYARKQNRWVKNRFLSRPGPIVPPVYGLEVSDVSKWEESVLEPALEIVQSFIQGHKPTATPIKMPYNEAENKRSYHLCDLCDRIIIGDREWAAHIKSKSHLNQLKKRRRLDSDAVNTIESQSVSPDHNKEPKEKGSPGQNDQELKCSV | soluble
11 | MSAIENIVISMENATERRKHITKQFESKKLSFSFFNAYTYQSINQSINQSINQSINQSINQSINQSINQSNSILHNIEESRILTKGEKGCLISHFLLWNKCVNENFEYLKIFEDDVILGENAEVFLNQNEWLKTRFDFNDIFIIRLETFLQPVKLEKQTKIPPFNSRNFDILKSTHWGTAGYIISQGAAKYVIEYLKNIPSDEIVAVDELIFNKLVDVDNYIVYQLNPAICIQELQANQSKSVLTSGLEKERQKRSKIRKKKTLKQRLTRIKENIIRALNRKKWKEQQRIKEMQGKEIVRFMLEHHHHHH | not soluble
12 | MNAGKEFNYYTYQSDSSQGSLQKAPDENTDYFTHKMNSYLPFDMSTLYANQPTEKIQILQEIYDTERTYVKALTIVDEIFIQQLNLWCPKSKKCFRSMFGEISAICKTHQILLESLQCKPIAEVFTKFVPFLKLYTSYASHYPNSLKIFAKLMSRNDFRKALTKIEEDPRVDGKKLQTYLIMPIQRIPRYIMLIQNLMNYSTEKDDMTNLYKALSGMQGLSDQIQSCMTAYENGERLLQIQLNFGLDGHILEPGRVLLKEGMLYKRELNGSANYQETVVFLFNDILLYGIKRISVMPLCKYEPSAILSLRHCIVQLDDIGGSIFIRCGDVGVDFTAYSLGGVTEWYNEICDAIDNAKKLRDTLRKESFKQKSLIFDKGFWQRNRDKLRNMITADMTGNISRVLTRKKPAPKLEESDFLRGQWTTSTIASNQRKRKVATLEDEEEDVFNMLSSPNLSQRKRKATLQENTPSGVGWTASPRSSSFRKRRASTLRNKNADVTDGNNYLSHLVLNDVTMTQPYTGLNAFVGTPKSRTPTDDDYDSDRDYVWTDDEEFVSDDKKIPIRRVASYDEEDRRPRDFSEVRRSVASEPPRRHLAVDDIRKLSYQQRSLEPFNMVTEDDDEDDIIDIKVKGERPRPWWETESAPPAIKNQKSSIIDSIRNSCAIM | not soluble
13 | MGSDKIHHHHHHMNEKTSVSSDRRDFWDGRAREFSEHAASTGYPRAFLRILKPRKSWTVLDMACGGGTIAIPLANRVKFITAVDFSMRMLEIVEQRCLAGKITNVKTLQGRWEDDWDDLGIGVHDVAIASRSLLSETAMDSIAKLNRAATKAVYISVAVGSGPFDWRLLEAADRERNTRPDYIFYYNLLYEMGIPANVSFIPESYRNSWESHEEAFEDQLWMFQGMTGEEEEKVRAYLREHLVWVKGHWQLPYSRNYYWAVLYWTKDREIGS | not soluble
14 | MSLKNGLRIYALGGISEIGRNMTVFEYNNRLLIVDCGVLFPSSGEPGVDLILPDFGPIENKLDKVDALVITHGHEDHIGAIPWLLKLRPDMPILASKFTMALIAAKCREHRQRPKLIEVNEKSDINRGPFNIRFWAVNHSIPDCLGVAIKTGAGLVIHTGDVKLDQTPPDGRPTDLPALSRFGDEGVDLLLCESTNATVPGFSGSEADVAPTLKRLISDAKQRVILASFASNVYRVQAAVDAAVAAGRKVAFNGRSMIRNMEIAEKMGYLKAPRGTIVSMDDAAKMAPHKVVLITTGTQGEPMAALSRMARREHRQITVRDGDLIILSSSLVPGNEEAVFGVMNMLSQIGATVVTGRDAKVHTSGHGFAGELLFLYNAARPKNVMPVHGEWRHLRANKELAISTGVEADRVVLAQNGVVVDLVDGRARVVGQMQVGHLYVDGVTMGDIDAEVLEERTSLGEGGLIAITAVIDSRTARLLERPTVQAKGFSEDAVAMMPEVTELVEKTMNDLAAEGENDPYRMVQQLRRRVSRFVEQKWRRKPMIMPTVIPTTSATIDIDDADVRASREGHHHHHH | soluble
15 | MLLFSRQGKLRLQKWYMAYPDKVKKKITRELVTTILARKPKMCSFLEWKDCKIVYKRYASLYFCCAIEQNDNELLTLEIIHRYVELLDKYFGSVCELDIIFNFEKAYFILDELLIGGEIQETSKKNVLKAIASQDLLQEDETPQSFFDDHGLG | soluble
16 | DEIVMDANAVLGPVDPQLGNFPAASILKVVKDKPIGEIDDQTLIMADLAGKAIQQVQRFVRTLLKDNIPKQKVNPENIESIIEALTTGRVTHDYPITVEEATEMGLPITVGLPRSIYELMDLYPQSQGGRPSVQYIPMPYDDRRPIL | not soluble
17 | MAQIIDFFAAFRGYYSDGSTFIQIISLGSHHNLSVHISERMLSESGIKLGNFLSATVSLAEHPKNFQLKRLNLQVTVEGNFAKVHGIEANLEKNADGILVFSTNNFASAKATNQGLEIGRYKITVQAVKPSEKDLFNGMKFFGTVEEKISGLTRRVASNNTNQVIGEGFRNMSISGKRTVS | not soluble
18 | MSLEGEVEKTQAKGSIILATTTSTSDSGLLDYLLPEFTKDTGIEAKVVAVGTGQALQMGKDGEADVLLVHSKAAEEEFVAAGDGLERKDVMYNDFILVGPANDPLKLKQELPNDIVGALKKISEQKFKFISRGDDSGTHKKELALWTEVGITPEGDYYVSAGRGMGDVLKMADEMQAYTIADRGTYLSMKADLGLDIIVEKDTNLFNQYGVIPVNPDKNENINAEGAKAFEEWILSEKAQSLIGEYGKEKYGAPLFTPNAAKEGHHHHHH | soluble
19 | MRTVIFDLDGTLADTSGDLLAAANHCFRDMGLGDVLVPGQDAGIALRGGRMMLTRGLERVGAYDAATVERYYPVLLEAYRGAIDHHSFLYPGAMDAVEELRRAGYGVGICTNKPEALADLLLQRLGVRDAFAALIGADTLPVRKPDPEPLRAAARAAGGDPAACVLVGDSDTDRNTARAAGVPSILVTFGPSGDDMAALEPEALLERFEDLPHVVTRLIG | not soluble
20 | MRWNICVVGAGKIGQMIAALLKTSSNYSVTVADHDLAALAVLNRMGVATKQVDAKDEAGLAKALGGFDAVISAAPFFLTPIIAKAAKAAGAHYFDLTEDVAATNAVRALAEDSQTAFMPQCGLAPGFVGIAGAALAAEFDEIDSLHMRVGALPLYPTNALKYNLTWSTDG | not soluble
21 | MSLKTVAVIGAMEQEIELLREMMENVKAVSFGRFSAYEGELAGKRMVLALSGIGKVNAAVATAWIIREFAADCVINTGSAGGLGKGLKVGDVVIGTETAHHDVDVTAFGYAWGQVPQLPARFASDGILIEAAKRAARTFEGAAVEQGLIVSGDRFVHSSEGVAEIRKHFPEVKAVEMEAAAIAQTCHQLETPFVIIRAVSDSADEKADISFDEFLKTAAANSAKMVAEIVKSL | soluble
22 | GPGSMTLYSIYIFNRYGDNIFYKEWNRTTAPQEGEAGLVAGFIYTLQHFSSQLSSSGEGGFYAVRTPLYKLHYNETMTGYRVALLSDKDLKTDVVQNILRKMFSDVFQRYVTKDPNYSHTQGRVITSTAFGEALDQFFHSQKIL | not soluble
23 | MSNQKLSDGGACCSPLAREPLTEDWAGDLARMFKALGDPVRLRLLSLIASHAGGEACVCDISESFDLSQPTISHHLKVLRAAGLLDCERRGTWVYYWVIPSALQQLSAVLLTESGTAVPSPTCAEARA | not soluble
